Paper PMC9482650, “Quantitative fragmentomics allow affinity mapping of interactomes” (Nature Communications, 2022)

How the values were obtained:
Assay in all cases: holdup assay
Design in all cases: key: below the threshold = too weak to quantify, mostly under pKd 3.1 to 4
DLG3_3, Q92796 = target: T1, DLG3_3, Q92796
T1 sequence (Q92796 374-475, limits assumed, looked up): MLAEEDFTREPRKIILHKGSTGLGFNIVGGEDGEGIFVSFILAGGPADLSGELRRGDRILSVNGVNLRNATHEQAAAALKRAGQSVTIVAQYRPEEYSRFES

MAGI1_1, Q96QZ7 = target: MAGI1_1, Q96QZ7
Sequence of MAGI1_1, Q96QZ7 (Q96QZ7 1-106): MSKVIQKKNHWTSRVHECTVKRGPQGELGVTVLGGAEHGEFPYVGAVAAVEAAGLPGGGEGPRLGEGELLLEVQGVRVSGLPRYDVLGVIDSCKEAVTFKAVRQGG

NHERF2_2, Q15599 = target: NHERF2_2, Q15599
Sequence of NHERF2_2, Q15599 (Q15599 142-238): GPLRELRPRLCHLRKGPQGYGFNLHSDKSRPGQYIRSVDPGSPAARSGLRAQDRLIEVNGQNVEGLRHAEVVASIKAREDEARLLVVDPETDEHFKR

SNTG2, Q9NY99 = target: T2, SNTG2, Q9NY99
T2 sequence (Q9NY99 68-166, limits assumed, looked up): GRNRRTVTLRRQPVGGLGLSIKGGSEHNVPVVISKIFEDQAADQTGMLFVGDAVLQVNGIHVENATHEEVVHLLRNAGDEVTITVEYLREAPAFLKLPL

FRMPD2_3, Q68DX3 = target: FRMPD2_3, Q68DX3
Sequence of FRMPD2_3, Q68DX3 (Q68DX3 1073-1166): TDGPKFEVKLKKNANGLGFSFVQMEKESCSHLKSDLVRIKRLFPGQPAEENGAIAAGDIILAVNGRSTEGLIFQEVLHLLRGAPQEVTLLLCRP

LAP2, Q96RT1 = target: LAP2, Q96RT1
Sequence of LAP2, Q96RT1 (Q96RT1 other isoform, or with tags, fused parts or gaps): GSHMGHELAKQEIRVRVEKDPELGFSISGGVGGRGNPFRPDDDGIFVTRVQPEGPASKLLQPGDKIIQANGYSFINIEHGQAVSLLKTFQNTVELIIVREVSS

GORASP1, Q9BQQ3 = target: GORASP1, Q9BQQ3
Sequence of GORASP1, Q9BQQ3 (Q9BQQ3 1-208): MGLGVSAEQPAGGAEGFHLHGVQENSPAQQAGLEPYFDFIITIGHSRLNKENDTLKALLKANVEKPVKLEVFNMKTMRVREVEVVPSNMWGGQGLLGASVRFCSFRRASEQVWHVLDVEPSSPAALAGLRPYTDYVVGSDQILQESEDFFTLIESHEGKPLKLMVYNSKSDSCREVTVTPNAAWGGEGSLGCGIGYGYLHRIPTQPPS

LNX1_2, Q8TBB1 = target: LNX1_2, Q8TBB1
Sequence of LNX1_2, Q8TBB1 (Q8TBB1 371-470): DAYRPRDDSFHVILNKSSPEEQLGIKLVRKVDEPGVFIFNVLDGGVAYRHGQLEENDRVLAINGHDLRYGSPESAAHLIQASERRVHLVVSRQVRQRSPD

PTPN13_1, Q12923 = target: T3, PTPN13_1, Q12923
T3 sequence (Q12923 1088-1188, limits assumed, looked up): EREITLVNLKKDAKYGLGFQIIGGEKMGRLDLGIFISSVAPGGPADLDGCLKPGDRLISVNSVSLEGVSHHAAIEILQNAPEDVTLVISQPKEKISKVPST

PARD3_3, Q8TEW0 = target: PARD3_3, Q8TEW0
Sequence of PARD3_3, Q8TEW0 (Q8TEW0 582-685): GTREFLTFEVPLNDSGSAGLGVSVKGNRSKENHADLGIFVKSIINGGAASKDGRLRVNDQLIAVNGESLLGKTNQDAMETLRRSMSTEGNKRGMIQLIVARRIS

GRIP2_6, Q9C0E4 = target: GRIP2_6, Q9C0E4
Sequence of GRIP2_6, Q9C0E4 (Q9C0E4 648-740): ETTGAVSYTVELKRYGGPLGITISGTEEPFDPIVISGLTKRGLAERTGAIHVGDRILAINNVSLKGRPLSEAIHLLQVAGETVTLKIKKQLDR

GRIP2_5, Q9C0E4 = target: GRIP2_5, Q9C0E4
Sequence of GRIP2_5, Q9C0E4 (Q9C0E4 544-642): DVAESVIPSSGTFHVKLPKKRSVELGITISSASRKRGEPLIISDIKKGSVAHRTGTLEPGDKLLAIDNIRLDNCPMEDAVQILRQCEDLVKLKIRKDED

PDZRN3_1, Q9UPQ7 = target: T4, PDZRN3_1, Q9UPQ7
T4 sequence (Q9UPQ7 244-349, limits assumed, looked up): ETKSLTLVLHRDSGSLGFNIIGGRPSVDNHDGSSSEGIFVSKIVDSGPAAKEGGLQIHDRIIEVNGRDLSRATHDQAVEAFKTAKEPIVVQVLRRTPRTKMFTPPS

TIAM2, Q8IVF5 = target: T5, TIAM2, Q8IVF5
T5 sequence (Q8IVF5 885-986, limits assumed, looked up): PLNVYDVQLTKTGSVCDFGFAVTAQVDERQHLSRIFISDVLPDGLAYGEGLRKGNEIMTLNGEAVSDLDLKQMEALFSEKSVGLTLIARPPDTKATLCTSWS

LNX1_1, Q8TBB1 = target: LNX1_1, Q8TBB1
Sequence of LNX1_1, Q8TBB1 (Q8TBB1 261-371): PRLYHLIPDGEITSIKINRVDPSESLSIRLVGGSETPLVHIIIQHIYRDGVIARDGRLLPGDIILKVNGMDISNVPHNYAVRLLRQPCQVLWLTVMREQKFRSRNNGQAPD

TJP1_3, Q07157 = target: TJP1_3, Q07157
Sequence of TJP1_3, Q07157 (Q07157 416-512): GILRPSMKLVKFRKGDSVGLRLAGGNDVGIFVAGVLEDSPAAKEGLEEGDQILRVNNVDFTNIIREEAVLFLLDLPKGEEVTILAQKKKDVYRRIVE

CASK, O14936 = target: CASK, O14936
Sequence of CASK, O14936 (O14936 487-570): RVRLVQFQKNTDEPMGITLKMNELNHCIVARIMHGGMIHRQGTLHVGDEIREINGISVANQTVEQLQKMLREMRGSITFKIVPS

FRMPD2_2, Q68DX3 = target: FRMPD2_2, Q68DX3
Sequence of FRMPD2_2, Q68DX3 (Q68DX3 944-1038): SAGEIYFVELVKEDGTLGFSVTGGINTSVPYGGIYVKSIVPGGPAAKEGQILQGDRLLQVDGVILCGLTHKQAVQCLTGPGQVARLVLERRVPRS

NHERF3_1, Q5T2W1 = target: T6, NHERF3_1, Q5T2W1
T6 sequence (Q5T2W1 4-100, limits assumed, looked up): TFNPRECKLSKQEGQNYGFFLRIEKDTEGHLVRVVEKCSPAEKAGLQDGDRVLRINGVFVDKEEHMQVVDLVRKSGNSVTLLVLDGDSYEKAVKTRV

Inadl_2, Q8NI35 = target: Inadl_2, Q8NI35
Sequence of Inadl_2, Q8NI35 (Q8NI35 238-335): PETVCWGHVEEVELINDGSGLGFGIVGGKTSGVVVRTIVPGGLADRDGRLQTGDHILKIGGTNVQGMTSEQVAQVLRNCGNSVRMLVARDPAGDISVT

GRIP2_3, Q9C0E4 = target: GRIP2_3, Q9C0E4
Sequence of GRIP2_3, Q9C0E4 (Q9C0E4 238-339): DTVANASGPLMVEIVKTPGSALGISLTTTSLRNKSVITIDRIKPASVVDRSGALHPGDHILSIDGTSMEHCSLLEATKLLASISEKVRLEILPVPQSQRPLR

APBA2_1, Q99767 = target: T7, APBA2_1, Q99767
T7 sequence (Q99767 563-664, limits assumed, looked up): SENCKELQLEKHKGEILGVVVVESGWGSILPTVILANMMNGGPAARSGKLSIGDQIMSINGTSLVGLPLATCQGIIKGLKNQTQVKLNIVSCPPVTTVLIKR

PARD3B_1, Q8TEW8 = target: T8, PARD3B_1, Q8TEW8
T8 sequence (Q8TEW8 196-299, limits assumed, looked up): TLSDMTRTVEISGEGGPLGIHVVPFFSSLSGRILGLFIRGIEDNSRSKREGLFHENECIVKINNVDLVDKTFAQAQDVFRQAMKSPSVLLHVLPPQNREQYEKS

APBA1_2, Q02410 = target: T9, APBA1_2, Q02410
T9 sequence (Q02410 742-832, limits assumed, looked up): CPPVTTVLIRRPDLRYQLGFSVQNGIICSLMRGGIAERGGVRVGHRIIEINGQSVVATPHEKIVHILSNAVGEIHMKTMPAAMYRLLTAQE

MPDZ_10, O75970 = target: T10, MPDZ_10, O75970
T10 sequence (O75970 1624-1722, limits assumed, looked up): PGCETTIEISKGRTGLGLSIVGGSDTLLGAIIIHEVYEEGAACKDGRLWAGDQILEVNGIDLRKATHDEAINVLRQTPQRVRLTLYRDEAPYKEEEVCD

HTRA2, O43464 = target: HTRA2, O43464
Sequence of HTRA2, O43464 (O43464 355-458): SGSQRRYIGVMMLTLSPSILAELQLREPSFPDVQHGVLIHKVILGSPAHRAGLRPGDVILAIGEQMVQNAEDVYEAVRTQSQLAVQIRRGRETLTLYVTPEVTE

GRIP2_4, Q9C0E4 = target: GRIP2_4, Q9C0E4
Sequence of GRIP2_4, Q9C0E4 (Q9C0E4 446-548): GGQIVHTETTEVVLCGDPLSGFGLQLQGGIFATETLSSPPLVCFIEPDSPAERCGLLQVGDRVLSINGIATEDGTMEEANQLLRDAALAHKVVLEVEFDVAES

[1] = modified: phospho on T at position -2 from the C-terminal residue
[2] = plain residues with an end cap or a label only (N-terminal biotin on a linker: ado-ado)

RLQRRRETQV [HPV18-E6_-2P, P06463]
pKd (DLG3_3, Q92796; [1]): 3.52
pKd (MAGI1_1, Q96QZ7; [1]): below the threshold
pKd (NHERF2_2, Q15599; [1]): below the threshold
pKd (SNTG2, Q9NY99; [1]): below the threshold
pKd (FRMPD2_3, Q68DX3; [1]): below the threshold
pKd (LAP2, Q96RT1; [1]): below the threshold
pKd (GORASP1, Q9BQQ3; [1]): below the threshold
pKd (LNX1_2, Q8TBB1; [1]): below the threshold
pKd (PTPN13_1, Q12923; [1]): below the threshold
pKd (PARD3_3, Q8TEW0; [1]): below the threshold
pKd (GRIP2_6, Q9C0E4; [1]): below the threshold
pKd (GRIP2_5, Q9C0E4; [1]): below the threshold
pKd (PDZRN3_1, Q9UPQ7; [1]): below the threshold
pKd (TIAM2, Q8IVF5; [1]): below the threshold
pKd (LNX1_1, Q8TBB1; [1]): below the threshold
pKd (TJP1_3, Q07157; [1]): below the threshold
pKd (CASK, O14936; [1]): below the threshold
pKd (FRMPD2_2, Q68DX3; [1]): below the threshold
pKd (NHERF3_1, Q5T2W1; [1]): below the threshold
pKd (Inadl_2, Q8NI35; [1]): below the threshold
pKd (GRIP2_3, Q9C0E4; [1]): below the threshold
pKd (APBA2_1, Q99767; [1]): below the threshold
pKd (PARD3B_1, Q8TEW8; [1]): below the threshold
pKd (APBA1_2, Q02410; [1]): below the threshold
pKd (MPDZ_10, O75970; [1]): below the threshold
pKd (HTRA2, O43464; [1]): below the threshold
pKd (GRIP2_4, Q9C0E4; [1]): below the threshold

QPCFNKLFPL [LPXN, O60711]
pKd (DLG3_3, Q92796; [2]): below the threshold
pKd (MAGI1_1, Q96QZ7; [2]): 3.74
pKd (NHERF2_2, Q15599; [2]): below the threshold
pKd (SNTG2, Q9NY99; [2]): below the threshold
pKd (FRMPD2_3, Q68DX3; [2]): below the threshold
pKd (LAP2, Q96RT1; [2]): below the threshold
pKd (GORASP1, Q9BQQ3; [2]): 3.68
pKd (LNX1_2, Q8TBB1; [2]): below the threshold
pKd (PTPN13_1, Q12923; [2]): below the threshold
pKd (PARD3_3, Q8TEW0; [2]): below the threshold
pKd (GRIP2_6, Q9C0E4; [2]): below the threshold
pKd (GRIP2_5, Q9C0E4; [2]): below the threshold
pKd (PDZRN3_1, Q9UPQ7; [2]): below the threshold
pKd (TIAM2, Q8IVF5; [2]): below the threshold
pKd (LNX1_1, Q8TBB1; [2]): below the threshold
pKd (TJP1_3, Q07157; [2]): below the threshold
pKd (CASK, O14936; [2]): below the threshold
pKd (FRMPD2_2, Q68DX3; [2]): below the threshold
pKd (NHERF3_1, Q5T2W1; [2]): 4.01
pKd (Inadl_2, Q8NI35; [2]): below the threshold
pKd (GRIP2_3, Q9C0E4; [2]): below the threshold
pKd (APBA2_1, Q99767; [2]): below the threshold
pKd (PARD3B_1, Q8TEW8; [2]): 3.75
pKd (APBA1_2, Q02410; [2]): 3.63
pKd (MPDZ_10, O75970; [2]): below the threshold
pKd (HTRA2, O43464; [2]): 4.1
pKd (GRIP2_4, Q9C0E4; [2]): below the threshold

SSALYGESDL [ACTN2, P35609]
pKd (DLG3_3, Q92796; [2]): 3.6
pKd (MAGI1_1, Q96QZ7; [2]): below the threshold
pKd (NHERF2_2, Q15599; [2]): 4.35
pKd (SNTG2, Q9NY99; [2]): below the threshold
pKd (FRMPD2_3, Q68DX3; [2]): below the threshold
pKd (LAP2, Q96RT1; [2]): 3.96
pKd (GORASP1, Q9BQQ3; [2]): below the threshold
pKd (LNX1_2, Q8TBB1; [2]): below the threshold
pKd (PTPN13_1, Q12923; [2]): below the threshold
pKd (PARD3_3, Q8TEW0; [2]): below the threshold
pKd (GRIP2_6, Q9C0E4; [2]): below the threshold
pKd (GRIP2_5, Q9C0E4; [2]): below the threshold
pKd (PDZRN3_1, Q9UPQ7; [2]): below the threshold
pKd (TIAM2, Q8IVF5; [2]): 4.18
pKd (LNX1_1, Q8TBB1; [2]): 3.86
pKd (TJP1_3, Q07157; [2]): below the threshold
pKd (CASK, O14936; [2]): below the threshold
pKd (FRMPD2_2, Q68DX3; [2]): below the threshold
pKd (NHERF3_1, Q5T2W1; [2]): 3.57
pKd (Inadl_2, Q8NI35; [2]): below the threshold
pKd (GRIP2_3, Q9C0E4; [2]): below the threshold
pKd (APBA2_1, Q99767; [2]): below the threshold
pKd (PARD3B_1, Q8TEW8; [2]): below the threshold
pKd (APBA1_2, Q02410; [2]): below the threshold
pKd (MPDZ_10, O75970; [2]): below the threshold
pKd (HTRA2, O43464; [2]): below the threshold
pKd (GRIP2_4, Q9C0E4; [2]): below the threshold

GQEEQVTTRL [TRPC5, Q9UL62]
pKd (DLG3_3, Q92796; [2]): below the threshold
pKd (MAGI1_1, Q96QZ7; [2]): below the threshold
pKd (NHERF2_2, Q15599; [2]): 4.71
pKd (SNTG2, Q9NY99; [2]): 4.44
pKd (FRMPD2_3, Q68DX3; [2]): below the threshold
pKd (LAP2, Q96RT1; [2]): below the threshold
pKd (GORASP1, Q9BQQ3; [2]): below the threshold
pKd (LNX1_2, Q8TBB1; [2]): below the threshold
pKd (PTPN13_1, Q12923; [2]): below the threshold
pKd (PARD3_3, Q8TEW0; [2]): 3.5
pKd (GRIP2_6, Q9C0E4; [2]): below the threshold
pKd (GRIP2_5, Q9C0E4; [2]): below the threshold
pKd (PDZRN3_1, Q9UPQ7; [2]): 3.8
pKd (TIAM2, Q8IVF5; [2]): 3.65
pKd (LNX1_1, Q8TBB1; [2]): below the threshold
pKd (TJP1_3, Q07157; [2]): below the threshold
pKd (CASK, O14936; [2]): below the threshold
pKd (FRMPD2_2, Q68DX3; [2]): below the threshold
pKd (NHERF3_1, Q5T2W1; [2]): 5.17
pKd (Inadl_2, Q8NI35; [2]): below the threshold
pKd (GRIP2_3, Q9C0E4; [2]): below the threshold
pKd (APBA2_1, Q99767; [2]): below the threshold
pKd (PARD3B_1, Q8TEW8; [2]): 4.5
pKd (APBA1_2, Q02410; [2]): 3.58
pKd (MPDZ_10, O75970; [2]): below the threshold
pKd (HTRA2, O43464; [2]): below the threshold
pKd (GRIP2_4, Q9C0E4; [2]): below the threshold

NLSIEKETKL [ASNSD1, Q9NWL6]
pKd (DLG3_3, Q92796; [2]): below the threshold
pKd (MAGI1_1, Q96QZ7; [2]): below the threshold
pKd (NHERF2_2, Q15599; [2]): 4.76
pKd (SNTG2, Q9NY99; [2]): 4.95
pKd (FRMPD2_3, Q68DX3; [2]): below the threshold
pKd (LAP2, Q96RT1; [2]): 3.52
pKd (GORASP1, Q9BQQ3; [2]): below the threshold
pKd (LNX1_2, Q8TBB1; [2]): below the threshold
pKd (PTPN13_1, Q12923; [2]): below the threshold
pKd (PARD3_3, Q8TEW0; [2]): below the threshold
pKd (GRIP2_6, Q9C0E4; [2]): below the threshold
pKd (GRIP2_5, Q9C0E4; [2]): below the threshold
pKd (PDZRN3_1, Q9UPQ7; [2]): 4.67
pKd (TIAM2, Q8IVF5; [2]): 3.94
pKd (LNX1_1, Q8TBB1; [2]): below the threshold
pKd (TJP1_3, Q07157; [2]): below the threshold
pKd (CASK, O14936; [2]): below the threshold
pKd (FRMPD2_2, Q68DX3; [2]): below the threshold
pKd (NHERF3_1, Q5T2W1; [2]): 6.04
pKd (Inadl_2, Q8NI35; [2]): below the threshold
pKd (GRIP2_3, Q9C0E4; [2]): below the threshold
pKd (APBA2_1, Q99767; [2]): below the threshold
pKd (PARD3B_1, Q8TEW8; [2]): 3.89
pKd (APBA1_2, Q02410; [2]): below the threshold
pKd (MPDZ_10, O75970; [2]): below the threshold
pKd (HTRA2, O43464; [2]): below the threshold
pKd (GRIP2_4, Q9C0E4; [2]): below the threshold
